In paper PMC7728236 (PLoS Pathogens, 2020):

Target: the molecule itself
Assay: cryo-EM structure

B1: full-length hemagglutinin (HA) of influenza virus A/Hong Kong/1/1968 (H3N2), trypsin-cleaved into HA1/HA2 (natural protein)
chain 1: not shown
chain 2: not shown
notes: copies: 3 + 3
stoichiometry N: 3
